This note sets out measurements from the supplement of paper PMC9170038.

The test system of this data set is MS2 coat protein. Briefly: apparent KD of MS2 coat protein; designed switch direction (-1 OFF switch, 1 ON switch): -1; higher = weaker reporter binding. Summed up:
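Three titration conditions were used: no input, 200 uM small-molecule ligand, and an oligonucleotide input. In each, SNAP-549-labelled MS2 coat protein was raised from 0.7 or 1.5 nM, doubling, to 3 µM over designed RNA switches transcribed on Illumina chips by stalled E. coli RNA polymerase. Curve fits of normalised cluster fluorescence gave values whose per-design median over clusters is the apparent KD.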

Where [1] appears, read: input ligand: microRNA oligo, concentration not stated.
[2] abbreviates: Eterna round: R95, input ligand: microRNA oligo, concentration not stated.
Setting [3] is: Eterna round: R95, input ligand: FMN 200 uM.
Where [4] appears, read: Eterna round: R95, input ligand: none.

Regarding “AGGGUAAAGUUAGGAUAUGCGAAUAAUCCAGACGCAGAAGGAACAGGUCGCAUGUGAGUCACAUGAGGAUCACCCAUGUAACUA [Ceissoar] (Eterna round: R96, puzzle: Exclusion NG 1)”, the “apparent KD of MS2 coat protein” value stood at 0.143 µM (input ligand: FMN 200 uM), 0.0296 µM under setting [1] and 0.0361 µM (input ligand: none).
For the sequence “AGGUCACAUGAGGAUCACCCAUGUCAGGAUAUCGUCACUGGAGCCUCGGCUCCAGUGACGAGAAGGGAUAAUUA [E1/8-A2] (Eterna round: R97, puzzle: Exclusion 1)”, the “apparent KD of MS2 coat protein” value came to 0.0753 µM (input ligand: FMN 200 uM) and 0.0505 µM (input ligand: none).
Regarding “AGGUCACAUGAGGAUCACCCAUGUGAGGAUAUUUACUCAAGAGCUUCGGCUCUCAGGUGAAGAAGGCGCAAUGA [EX1 #54] (Eterna round: R97, puzzle: Exclusion 1)”, the “apparent KD of MS2 coat protein” value reads like this: (input ligand: FMN 200 uM) 0.0272 µM; (input ligand: none) 0.03 µM.
With “AGGUCCUUCUGGAGACAUGAGGAUCACCCAUGUCGGGUCAGCGAGGAUAUCGGUUAAUAAUGUGACGAGAAGGCGCGGACCGAU [Ex NG3 #56] (Eterna round: R96, puzzle: Exclusion NG 3)”, the “apparent KD of MS2 coat protein” value was 0.104 µM (input ligand: FMN 200 uM), 0.0195 µM under setting [1] and 0.0249 µM (input ligand: none).
Take “AGGUGUAGAGGAUAUCGAGUCCUUUACAUGAGGAUCACCCAUGUCCUGGGCACCCAGGACCGAGAAGGCUACACCA [Omei Ex5 D32] (Eterna round: R97, puzzle: Exclusion 5)”: the “apparent KD of MS2 coat protein” value runs as follows: (input ligand: FMN 200 uM) 0.353 µM; (input ligand: none) 0.223 µM.
In the same order, the values of “AGGUGUAGAGGAUAUCUCUUCUCUCACAUGAGGAUCACCCAUGUCCUAAAGUCCUAGGAGAGAGAAGGCUACACCA [Omei Ex5 D3] (Eterna round: R97, puzzle: Exclusion 5)” are 0.23 µM and 0.0828 µM.
In the same order, the values of “AGGUUGGGCGCAUCUUGCCACAUGAGGAUCACCCAUGUUGUACCAUUAGAAGAGAACAAGCUCUUUGCUCGUCUUAU [Sensor 1 S2] (Eterna round: R97, puzzle: Sensor, turn-off variant 1)” are 0.032 µM and 0.0395 µM.
Take “AGUAACAGAGGAUAUACUAUUUUAUGUGUUUGUUAUUUUGAACAUGAGGAUCACCCAUGUAGAAGGCUGAAUAA [JMF 93] (puzzle: Exclusion 2)”: the “apparent KD of MS2 coat protein” value under setting [2] was 0.024 µM.
For the sequence “AGUAACCGGGCUUUUUGCUACAUGAGGAUCACCCAUGUUUAAGCGGAGGGAUUGAUCGUCCUAAAUUCUUUAGUCGG [Eternabot (L2) Solution 8] (Eterna round: R97, puzzle: Sensor, turn-off variant 1)”, the “apparent KD of MS2 coat protein” value runs as follows: (input ligand: FMN 200 uM) 0.0168 µM; (input ligand: none) 0.0174 µM.
Turning to “AGUAACCGUCACGAAAGUGAUGGUUACACAAGCAUAUGUACAUGAGGAUCACCCAUGUCCUCAACUGCUCGUCUUAU [Sensor 3 - 55] (puzzle: Sensor v3, turn-off variant 2)”, the “apparent KD of MS2 coat protein” value worked out at 0.296 µM under setting [3], 0.385 µM under setting [2] and 0.424 µM under setting [4].
For “AGUAACUAUCACGAAAGUGAUAGUUACAAAACAAGUGGAACAUGAGGAUCACCCAUGUCCUCAUUUGCUCGUCUUAU [Sensor 3 - 4] (puzzle: Sensor v3, turn-off variant 2)”, the “apparent KD of MS2 coat protein” value under setting [3] amounted to 0.107 µM, the “apparent KD of MS2 coat protein” value under setting [2] was found to be 0.238 µM and the “apparent KD of MS2 coat protein” value under setting [4] is 0.166 µM.
In the same order, the values of “AGUAACUAUCACGAAAGUGAUAGUUACAAAACAGGUGAAACAUGAGGAUCACCCAUGUCCUCAUUUGCUCGUCUUAU [Sensor 3 - 3] (puzzle: Sensor v3, turn-off variant 2)” are 0.793 µM, 0.384 µM and 0.857 µM.
“AGUAACUAUCACGAAAGUGAUAGUUACACAAGCAGUGAAACAUGAGGAUCACCCAUGUCCUCAAUUGCUCGUCUUAU [Sensor 3 - 31] (puzzle: Sensor v3, turn-off variant 2)”: the “apparent KD of MS2 coat protein” value came to 0.0478 µM under setting [3], 0.194 µM under setting [2] and 0.0496 µM under setting [4].
For the sequence “AGUAACUCAAGAGGAUAUCACAUGAGGAUCACCCAUGUAUAGCGCGCUGCGCUAGUCCUCGUAUUUGAGAAGGUUUGAUAAAUG [Riausve] (Eterna round: R96, puzzle: Exclusion NG 2)”, the “apparent KD of MS2 coat protein” value (input ligand: FMN 200 uM) is 0.013 µM, the “apparent KD of MS2 coat protein” value under setting [1] was 0.0108 µM and the “apparent KD of MS2 coat protein” value (input ligand: none) amounted to 0.0157 µM.
Consider “AGUAAGCUAGGAUAUGCUUUGGGAAAGCAUUCCUUCGAUAAACUUGAGGAUCACCCAAGUAGAAGGAGCUAAAU [jl-ex2.4.49 ViennaUCT mod] (Eterna round: R97, puzzle: Exclusion 2)”, for which the “apparent KD of MS2 coat protein” value (input ligand: FMN 200 uM) was 0.0175 µM and the “apparent KD of MS2 coat protein” value (input ligand: none) came to 0.0154 µM.
In the same order, the values of “AGUAAGCUAGGAUAUGCUUUGGGAAAGCAUUCCUUCGAUAAACUUGAGGAUCACCCAAGUAGAAGGAGCUUACA [salish99_ex2_r4_004] (Eterna round: R97, puzzle: Exclusion 2)” are 0.0202 µM and 0.0138 µM.
As to “AGUACGAUGCGUGCUGACAUGCGUCGUGCAGCAGGUGAUACAUGAGGAUCACCCAUGUCCUCAUUUGCUCGUCUUGA [Mat - Sensor v3 - Turn-off var 2 - D19] (puzzle: Sensor v3, turn-off variant 2)”, the “apparent KD of MS2 coat protein” value reads like this: under setting [3], 0.0285 µM; under setting [2], 0.499 µM; under setting [4], 0.0284 µM.
In the case of “AGUACUAACACGAAAGUGUUAGUACAAUAAGCUUGUAUUACAUGAGGAUCACCCAUGUCCUCAUAAGCUCGUCUUAU [Mat - Sensor v3 - Turn-off var 2 - D46] (puzzle: Sensor v3, turn-off variant 2)”, the “apparent KD of MS2 coat protein” value reads like this: under setting [3], 0.316 µM; under setting [2], 0.014 µM; under setting [4], 0.881 µM.
“AGUACUAACACGAAAGUGUUAGUACAAUAAGCUUGUGAAACAUGAGGAUCACCCAUGUCCUCAUAAGCUCGUCUUAG [salish99_TOv2_r3_003] (puzzle: Sensor v3, turn-off variant 2)”: the “apparent KD of MS2 coat protein” value is 0.0164 µM under setting [3], 0.28 µM under setting [2] and 0.0154 µM under setting [4].
Regarding “AGUACUAACACGAAAGUGUUAGUACAAUAAGCUUGUGAAACAUGAGGAUCACCCAUGUCCUCAUGAGCUCGUCUUAU [salish99_TOv2_r3_051] (puzzle: Sensor v3, turn-off variant 2)”, the “apparent KD of MS2 coat protein” value is, setting by setting: under setting [3], 0.0778 µM; under setting [2], 0.00595 µM; under setting [4], 0.0679 µM.
For “AGUACUAACACGAAAGUGUUAGUACUGUAGGUUUGUGUUACAUGAGGAUCACCCAUGUCCUCAUAAGCUCGUCUUGU [Mat - Sensor v3 - Turn-off var 2 - D96] (puzzle: Sensor v3, turn-off variant 2)”, in that order: 0.38 µM, 0.152 µM and 0.368 µM.
For “AGUACUAACACGAAAGUGUUAGUUCAAUAAGCUUGUGAAACAUGAGGAUCACCCAUGUCCUCAUAAGCUCGUCUUAU [salish99_TOv2_r3_040] (Eterna round: R96, puzzle: Sensor v3, turn-off variant 2)”, the “apparent KD of MS2 coat protein” value runs as follows: (input ligand: FMN 200 uM) 0.0152 µM; under setting [1], 0.461 µM; (input ligand: none) 0.0175 µM.
For “AGUACUAACACGAAAGUGUUAGUUCAAUAAGCUUGUGAAACAUGAGGAUCACCCAUGUCCUCAUAAGCUCGUCUUAU [salish99_TOv2_r3_040] (puzzle: Sensor v3, turn-off variant 2)”, the “apparent KD of MS2 coat protein” value under setting [3] is 0.0158 µM, the “apparent KD of MS2 coat protein” value under setting [2] was 0.856 µM and the “apparent KD of MS2 coat protein” value under setting [4] is 0.015 µM.
Consider “AGUACUAACACGAACGUGUUAGUACAAUAAGCUUGUGAAACAUGAGGAUCACCCAUGUCCUCAUAAGCUCGUCUUAU [salish99_TOv2_r3_034] (puzzle: Sensor v3, turn-off variant 2)”, for which the “apparent KD of MS2 coat protein” value by setting is: under setting [3], 0.0179 µM; under setting [2], 0.775 µM; under setting [4], 0.0162 µM.
For the sequence “AGUACUAACACGACAGUGUUAGUACAAUAAGCUUGUGAAACAUGAGGAUCACCCAUGUCCUCAUAAGCUCGUCUUAU [salish99_TOv2_r3_031] (Eterna round: R96, puzzle: Sensor v3, turn-off variant 2)”, the “apparent KD of MS2 coat protein” value is, setting by setting: (input ligand: FMN 200 uM) 0.0154 µM; under setting [1], 0.431 µM; (input ligand: none) 0.0172 µM.
“AGUACUAACACGACAGUGUUAGUACAAUAAGCUUGUGAAACAUGAGGAUCACCCAUGUCCUCAUAAGCUCGUCUUAU [salish99_TOv2_r3_031] (puzzle: Sensor v3, turn-off variant 2)”: the “apparent KD of MS2 coat protein” value by setting is: under setting [3], 0.0188 µM; under setting [2], 0.867 µM; under setting [4], 0.0152 µM.
With “AGUACUAACACGAUAGUGUUAGUACAAUAAGCUUGUGAAACAUGAGGAUCACCCAUGUCCUCAUAAGCUCGUCUUAU [salish99_TOv2_r3_030] (Eterna round: R96, puzzle: Sensor v3, turn-off variant 2)”, the “apparent KD of MS2 coat protein” value is, setting by setting: (input ligand: FMN 200 uM) 0.0151 µM; under setting [1], 0.507 µM; (input ligand: none) 0.0173 µM.
Turning to “AGUACUAACACGAUAGUGUUAGUACAAUAAGCUUGUGAAACAUGAGGAUCACCCAUGUCCUCAUAAGCUCGUCUUAU [salish99_TOv2_r3_030] (puzzle: Sensor v3, turn-off variant 2)”, the “apparent KD of MS2 coat protein” value is, setting by setting: under setting [3], 0.0145 µM; under setting [2], 0.993 µM; under setting [4], 0.0146 µM.
